Source: patent US20210238249

Columns and labels:
[1] = target: fusion protein TOM70-(GGGGS)3-UB-p53 (UniProt P07213)
[2] = target: recombinant fusion protein TOM70-UB-p53 (UniProt P07213)

## UBP1 enzyme
[1]
  cleavage of the ubiquitin sequence by UBP1, 37 C for 1 hour, SDS-PAGE: the 3′ end of ubiquitin was cleaved by UBP1 enzyme, and only p53 protein was dissociation as expected
[2]
  cleavage of the ubiquitin sequence by UBP1, 37 C for 1 hour, SDS-PAGE: the dissociation of the ubiquitin protein from the fusion protein did not occur at all by UBP1
